Consider eight molecules from US20230212587A1, “Mutant Hydroxyphenylpyruvate Dioxygenase Polypeptide, Encoding Gene Thereof and Use Therefor” (Beijing Dabeinong Biotechnology Co., Ltd., priority 2019, published 2023).

First the molecules themselves.
B1: ZmHPPDm-F372V: Zea mays HPPD mutant F372V, SEQ ID NO: 347 (protein)
chain: MPPTPTAAAAGAAVAAASAAEQAAFRLVGHRNFVRFNPRSDRFHTLAFHHVELWCADAASAAGRFSFGLGAPLAARSDLSTGNSAHASLLLRSGSLSFLFTAPYAHGADAATAALPSFSAAAARRFAADHGLAVRAVALRVADAEEAFRTSVAAGARPAFGPVDLGRGFRLAEVELYGDVVLRYVSYPDGAAGEPFLPGFEGVASPGAADYGLSRFDHIVGNVPELAPAAAYFAGFTGFHEFAEFTTEDVGTAESGLNSMVLANNSENVLLPLNEPVHGTKRRSQIQTFLDHHGGPGVQHMALASDDVLRTLREMQARSAMGGFEFMAPPTSDYYDGVRRRAGDVLTEAQIKECQELGVLVDRDDQGVLLQIVPKPVGDRPTLFLEIIQRIGCMERDEKGQEYQKGGCGGFGKGNFSQLFKSIEDYEKSLEAMQAAAAATAQGS
modifications: ZmHPPDm-F372V Amino Acid Sequence
B2: N3HPPDm-F372V: Burkholderia sp. N3 HPPD mutant F372V, SEQ ID NO: 393 (protein)
chain: MQIPNWENPVGTDGFEFIEYTAPDPKALGQLFERMGFTAIARHRHKDVTVYRQGDINFIINAEPHSFAQRFARLHGPSICAIAFRVQDAAKAYQHALELGAWGFDNKTGPMELNIPAIKGIGDSLIYFVDRWRGKNGAQPGAIGDISIYDVDFEPIAGANPNPAGHGLTYIDHLTHNVHRGRMQEWAEFYERLFNFREVRYFDIEGKVTGVKSKAMTSPCGKIRIPINEEGSDTAGQIQEYLDAYHGEGIQHIALGTNDIYGAVDGLRGKEVKLLDTIDTYYELVDRRVPDHGESLDELKKRKILIDGARDDLLLQIVTENQIGPIFFEIIQRKGNQGFGEGNFKALFESIELDQIRRGVVQDKA
modifications: N3HPPDm-F372V Amino Acid Sequence
B3: N4HPPDm-F372V: Burkholderia sp. N4 HPPD mutant F372V, SEQ ID NO: 395 (protein)
chain: B2 chain with H65D, N160T, N258S, N343T
modifications: N4HPPDm-F372V Amino Acid Sequence
B4: N2HPPDm-F372V: Sphingobium sp. N2 HPPD mutant F372V, SEQ ID NO: 391 (protein)
chain: MTLFDNPLGLDGFEFVEFSAPAKGMLEPVFAAMGFVMIARHRSKDVQLWRQGGINLIANYEPRSPAAYFAAEHGPSACGMGWRVRNAAKAYELAVERGAEPVDVKTGPMELRLPAIRGIGGSIIYLIDRYEDEDGGLSIYDIDFVYEPGVDRHPEGAGFKIIDHLTHNVYGGRMAHWASFYERVFGFREIRYFDIKGEYTGLTSKAMTAPDGKIRIPLNEEGKAGGGQIEEFLRAYNGEGIQHIAFLCDDLIAAWDKLKALGTPLMTAPPATYYEMLDERLPGHGEPVAELQKRGILLDGSTQQGDPRLLLQIVGQATIGPVFFEFIQRKKDEGFGEGNFTALFESMERDQLRRGTLNAGESA
modifications: N2HPPDm-F372V Amino Acid Sequence
B5: TaHPPDm-F372V: Triticum aestivum HPPD mutant F372V, SEQ ID NO: 353 (protein)
chain: MPPTPTTPAATGAGAAAAVTPEHARPRRMVRFNPRSDRFHTLSFHHVEFWCADAASAAGRFAFALGAPLAARSDLSTGNSVHASQLLRSGNLAFLFTAPYANGCDAATASLPSFSADAARRFSADHGLAVRSIALRVADAAEAFRASVDGGARPAFSPVDLGRGFGFAEVELYGDVVLRFVSHPDGTDVPFLPGFEGVSNPGAVDYGLTRFDHVVGNVPELASAAAYVAGFTGFHEFAEFTTEDVGTAESGLNSMVLANNSEGVLLPLNEPVHGTKRRSQIQTFLEHHGGPGVQHIAVASSDVLRTLREMRARSAMGGFDFLPPPLPKYYEGVRRIAGDVLSEAQIKECQELGVLVDRDDQGVLLQIVTKPVGDRPTLFLEMIQRIGCMEKDERGEEYQKGGCGGFGKGNFSELFKSIEDYEKSLEAKQSAAVQGS
modifications: TaHPPDm-F372V Amino Acid Sequence
B6: N1HPPDm-F372V: Sphingobium sp. N1 HPPD mutant F372V, SEQ ID NO: 389 (protein)
chain: MAADSENPLGLHGFAFAEFTSPDPAAMARQFEQLGFVPAARRKDRGLTLYRQGRIAFILNAGEGEQASAFRAAHGPSANGMAFNVADAKAAHRHAIQSGATDADTAQSALPGTYAIEGIGDSLLYLVDSDPFADWDEVPGWREASAERGVGLDLLDHLTHNVRRGQMRVWSEFYATLFGFEEQKFFDIKGQATGLFSQAMIAPDHEIRIPLNESQDDNSQIEEFIREYNGEGIQHLALTTPDIYSTVEKLRANGVRLQDTIDTYYDLVDERVPGHGEDLARLRKNRILIDGDVHDEGLLLQIVTETMFGPIFFEIIQRKGNEGFGNGNFQVLYESIELDQIRRGVVTVDA
modifications: N1HPPDm-F372V Amino Acid Sequence
B7: N5HPPDm-F372V: Sphingobium sp. N5 HPPD mutant F372V, SEQ ID NO: 397 (protein)
chain: B6 chain with Y333F
modifications: N5HPPDm-F372V Amino Acid Sequence
B8: GsHPPDm-F372V: Gossypium hirsutum HPPD mutant F372V, SEQ ID NO: 351 (protein)
chain: MVQTNQSGSGNDFKLVGFSNFVRSNPKSDRFTVKRFHHIEFWCTDATNVARRFSWGLGMQFVAKSDLSTGNLTHASYLLRSRDLNFLFTAPYSPSIAVAQNLSPQSTASIPSFDHSLCRSFAATHGLGVRAIAIEVDDAETAFTTSVTHGALPFCPPTPLGDVATIAEVKLYGDVVLRYVSYTTTINSDHDFLPGFEKIEDTLSYPLDYGLRRLDHAVGNVPELGPAVSYVKSFTGFHEFAEFTAEDVGTSESGLNSVVLANNEEMVLLPMNEPVFGTKRKSQIQTYLEHNEGAGVQHLALVSEDIFKTLREMRKRSFVGGFEFMPSPPPTYYKKLKQRAGDILSDEQIKECEELGILVDRDDQGTLLQIVTKPVGDRPTIFIEIIQRIGCMVKDEEGKQYQKGGCGGFGKGNFSELFKSIEEYEKSLEAKQSQNP
modifications: GsHPPDm-F372V Amino Acid Sequence

Residue numbers refer to the chain shown, from its start. Numbers in names are those of the source.

The first assay deals with Arabidopsis thaliana T1 plants. In words: Topramezone tolerance of transgenic Arabidopsis thaliana T1 plants (pesticide damage grade by bleached leaf area, score, resistance evaluation). Format: in vivo. To be noted: topramezone 25 g ai/ha (1x); HPPD F372V mutants, Table 7. The procedure, abridged:
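Eighteen days after sowing, wild-type and HPPD-transgenic T1 Arabidopsis receive a topramezone spray at 1×, 2× or 4× field rate (25–100 g ai/ha) or water. Seven days later each plant is graded by its proportion of bleached leaf area.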
With B1, the Resistance evaluation entry is listed as “Highly resistant”.

Take B2: the Resistance evaluation entry is “Highly resistant”.

For the molecule B3, the Resistance evaluation entry is “Highly resistant”.

As to B4, the Resistance evaluation result is reported as “Highly resistant”.

In the case of B5, the Resistance evaluation entry is recorded as “Highly resistant”.

For B6, the Resistance evaluation result was “Highly resistant”.

As for B7, the Resistance evaluation result is reported as “Highly resistant”.

In the case of B8, the Resistance evaluation entry is “Moderately resistant”.

Still in this assay, the particulars now being: topramezone 100 g ai/ha (4x); HPPD F372V mutants, Table 7.
B1: the Resistance evaluation result was “Poorly resistant”.

Take B2: the Resistance evaluation result is reported as “Highly resistant”.

As to B3, the Resistance evaluation result is reported as “Highly resistant”.

In the case of B4, the Resistance evaluation result is “Highly resistant”.

B5: the Resistance evaluation result is “Moderately resistant”.

As to B6, the Resistance evaluation entry was “Highly resistant”.

On to B7, for which the Resistance evaluation result is “Highly resistant”.

B8: the Resistance evaluation entry was “Non-resistant”.
